This note sets out measurements from paper PMC8310136.

The target in the data set is NT*MNV VPg (Murine norovirus (MNV), UniProt Q80J95 871-994). Kind of data set: competition; 100-fold excess over labelled PP9 RNA. The note with it: protein: recombinant, tags: N-terminal His6-StrepII-spidroin NT*-enterokinase site-GGSRS linker, label: none.

B1: ssDNA competitor (ssDNA)
DNA: TATGCGGGCGAAACTTCTGGGAATAGTCCTGACAACCCCTATTGCGATCAGCTCTTTTGCTAGCTCG
Take B1: the binding result was “no binding”.

B2: dsDNA competitor (dsDNA)
DNA 1: B1 DNA
DNA 2: CGAGCTAGCAAAAGAGCTGATCGCAATAGGGGTTGTCAGGACTATTCCCAGAAGTTTCGCCCGCATA
Take B2: the binding result (blunt) is on record as “no binding”.
